Measurements reported in IntAct's records for PubMed 12799422.

B1: Adapter molecule crk (Homo sapiens), P46108 (parent)
chain: MAGNFDSEERSSWYWGRLSRQEAVALLQGQRHGVFLVRDSSTSPGDYVLSVSENSRVSHYIINSSGPRPPVPPSPAQPPPGVSPSRLRIGDQEFDSLPALLEFYKIHYLDTTTLIEPVSRSRQGSGVILRQEEAEYVRALFDFNGNDEEDLPFKKGDILRIRDKPEEQWWNAEDSEGKRGMIPVPYVEKYRPASASVSALIGGNQEGSHPQPLGGPEPGPYAQPSVNTPLPNLQNGPIYARVIQKRVPNAYDKTALALEVGELVKVTKINVSGQWEGECNGKRGHFPFTHVRLLDQQNPDEDFS
partner: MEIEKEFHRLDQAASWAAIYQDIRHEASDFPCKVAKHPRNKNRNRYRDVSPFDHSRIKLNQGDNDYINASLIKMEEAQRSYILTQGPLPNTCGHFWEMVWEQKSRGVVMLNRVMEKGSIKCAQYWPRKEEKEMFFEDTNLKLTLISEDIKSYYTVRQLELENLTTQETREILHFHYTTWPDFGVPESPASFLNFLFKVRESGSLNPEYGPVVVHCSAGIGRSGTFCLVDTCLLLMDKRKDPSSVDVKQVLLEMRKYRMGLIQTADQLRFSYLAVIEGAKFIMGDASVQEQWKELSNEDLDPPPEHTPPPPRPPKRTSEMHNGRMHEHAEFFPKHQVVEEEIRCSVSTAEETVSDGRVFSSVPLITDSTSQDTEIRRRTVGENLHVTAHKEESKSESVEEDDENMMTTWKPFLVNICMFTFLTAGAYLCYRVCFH
B2: Tyrosine-protein phosphatase non-receptor type 1 (Gallus gallus (Chicken)), O13016 (parent)
chain: B1 partner
B3: Adapter molecule crk (Homo sapiens), P46108 (parent)
chain: B1 chain
B4: Adapter molecule crk (Homo sapiens), P46108 (parent)
chain: B1 chain
partner: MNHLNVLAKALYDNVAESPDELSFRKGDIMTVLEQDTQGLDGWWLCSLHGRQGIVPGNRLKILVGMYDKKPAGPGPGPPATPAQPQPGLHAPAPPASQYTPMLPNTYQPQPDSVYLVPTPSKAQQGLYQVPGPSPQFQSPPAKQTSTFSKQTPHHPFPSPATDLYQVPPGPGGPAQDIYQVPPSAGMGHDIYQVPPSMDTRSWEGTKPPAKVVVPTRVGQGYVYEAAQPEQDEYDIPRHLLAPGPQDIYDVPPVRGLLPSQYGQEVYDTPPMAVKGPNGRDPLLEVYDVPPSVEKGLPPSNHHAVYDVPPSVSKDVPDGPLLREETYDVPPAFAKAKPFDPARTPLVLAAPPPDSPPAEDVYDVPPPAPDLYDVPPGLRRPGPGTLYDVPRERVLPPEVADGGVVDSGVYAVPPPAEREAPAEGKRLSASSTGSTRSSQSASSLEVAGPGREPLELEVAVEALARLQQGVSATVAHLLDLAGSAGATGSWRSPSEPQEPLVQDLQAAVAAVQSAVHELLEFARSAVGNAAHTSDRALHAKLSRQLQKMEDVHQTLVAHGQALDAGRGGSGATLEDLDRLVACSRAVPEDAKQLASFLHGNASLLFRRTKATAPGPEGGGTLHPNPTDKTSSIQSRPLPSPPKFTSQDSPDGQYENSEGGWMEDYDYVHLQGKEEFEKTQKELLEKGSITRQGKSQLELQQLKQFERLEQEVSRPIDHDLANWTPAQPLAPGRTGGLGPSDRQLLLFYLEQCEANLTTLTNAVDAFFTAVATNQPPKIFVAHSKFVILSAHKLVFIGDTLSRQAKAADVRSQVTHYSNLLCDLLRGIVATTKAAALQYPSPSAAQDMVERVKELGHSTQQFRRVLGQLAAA

Variants of: B1
Settings: with ptn1_chick PTPN1, O13016

| Variant | effect of a mutation on the interaction |
| --- | --- |
| Y221F | decreasing interaction |

Variants of: B2
Settings: with crk_human CRK, P46108

| Variant | effect of a mutation on the interaction |
| --- | --- |
| MEIEKEFHRLDQAASWAAIYQDIRHEASDFPCKVAKHPRNKNRNRYRDVSPFDHSRIKLNQGDNDYINASLIKMEEAQRSYILTQGPLPNTCGHFWEMVWEQKSRGVVMLNRVMEKGSIKCAQYWPRKEEKEMFFEDTNLKLTLISEDIKSYYTVRQLELENLTTQETREILHFHYTTWPDFGVPESPASFLNFLFKVRESGSLNPEYGPVVVHSSAGIGRSGTFCLVDTCLLLMDKRKDPSSVDVKQVLLEMRKYRMGLIQTADQLRFSYLAVIEGAKFIMGDASVQEQWKELSNEDLDPPPEHTPPPPRPPKRTSEMHNGRMHEHAEFFPKHQVVEEEIRCSVSTAEETVSDGRVFSSVPLITDSTSQDTEIRRRTVGENLHVTAHKEESKSESVEEDDENMMTTWKPFLVNICMFTFLTAGAYLCYRVCFH [C215S] | disrupting interaction |

Variants of: B3
Settings: with paxi_human PXN

| Variant | effect of a mutation on the interaction |
| --- | --- |
| Y221F | increasing interaction |

Variants of: B4
Settings: with bcar1_human BCAR1, P56945

| Variant | effect of a mutation on the interaction |
| --- | --- |
| Y221F | increasing interaction |
